Among the data in patent US20100284921A1 are percent decrease of binding and internalization of ^125I-Ab-CLIO values, retold here.

This assay concerns the target human polyomavirus (JC virus) T-antigen (JC virus (human polyomavirus)). The assay can be described thus: competition on T-antigen positive cells, 1 hour: 100-fold excess of unconjugated pAb416 against the ^125I 8 Ab/CLIO conjugate.

On to “pAb416, a monoclonal antibody against T-antigen (IgG, not coupled to CLIO)”, for which the percent decrease of binding and internalization of ^125I-Ab-CLIO is over 80%.
